36 compounds from patent publication US6391305B1, “Conjugates useful in the treatment of prostate cancer” (priority 1999, dated 2002) can be followed below.

Where “and” joins values, the source holds several entries; their conditions need not be identical. Identical values can stand only once. Marks after values point to notes of the source that are not given here. Non-standard residues stand in square brackets, D forms with d. Residues, ends and D or L forms follow the SMILES beside them. Primed or numbered codes have the meaning given here. No end group written: not given here. *: point of attachment. PEG(1) = polyethylene glycol containing substituent with 1 ethyleneoxy subunit; X5 = (2R,3S)‑2,3,4‑trihydroxybutanoyl, O=C([C@H](O)[C@@H](O)CO)*; Decanoyl(3,6,9-trioxa) = COCCOCCOCC(=O)*; Glyceroyl(2S) = O=C([C@@H](O)CO)*; hArg = N=C(N)NCCCC[C@H](N)C(=O)O; 3Pal = N[C@@H](Cc1cccnc1)C(=O)O; Cha = N[C@@H](CC1CCCCC1)C(=O)O; Chg = N[C@H](C(=O)O)C1CCCCC1; Nle = CCCC[C@H](N)C(=O)O; PEG(15) = PEG(15): -; PEG(16) = PEG(16): -; PEG(17) = PEG(17): -; Glycolyl = O=C(CO)*

The first series deals with T1, enzymatically active free PSA (Homo sapiens, UniProt P07288).
T1 construct: required for 50% cleavage of the noted oligopeptides with enzymatically active free PSA
T1 sequence (P07288 25-261): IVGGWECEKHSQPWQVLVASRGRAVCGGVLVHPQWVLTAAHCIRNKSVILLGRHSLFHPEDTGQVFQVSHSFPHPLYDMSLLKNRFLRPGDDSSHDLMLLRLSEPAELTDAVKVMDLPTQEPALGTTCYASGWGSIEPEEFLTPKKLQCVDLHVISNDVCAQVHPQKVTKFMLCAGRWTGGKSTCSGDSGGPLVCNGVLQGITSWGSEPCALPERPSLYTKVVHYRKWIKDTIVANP
The format is biochemical. The settings on record: oligopeptide; 4 hours. Here is the method:
All other oligopeptides were tested as neutral compounds.
On to “ShRChgQ-SL-acid: oligopeptide without N-terminal blocking group, Example 1 (S[hArg][Chg]QSL-OH)”, for which the “Substrate cleavage by York PSA at 4 HOUR” value came to 4 HOUR = 8%.

Still in this series, the particulars now being: oligopeptide; PSA digestion buffer pH8.0; molar ratio to PSA 100 to 1.
As to “2-hydroxyacetyl-hRASChgQ-SL-acid: blocked oligopeptide with PSA cleavage site, Example 1 (Glycolyl-[hArg]AS[Chg]QSL-OH; SMILES CC(C)C[C@H](NC(=O)[C@H](CO)NC(=O)[C@H](CCC(N)=O)NC(=O)[C@@H](NC(=O)[C@H](CO)NC(=O)[C@H](C)NC(=O)[C@H](CCCCNC(=N)N)NC(=O)CO)C1CCCCC1)C(=O)O)”, the “Time to 50% Substrate Cleavage by York PSA” value amounted to 70 min.

As for “2-hydroxyacetyl-hRSSYQ-SNle-acid: blocked oligopeptide with PSA cleavage site, Example 1 (Glycolyl-[hArg]SSYQS[Nle]-OH)”, the “Time to 50% Substrate Cleavage by York PSA” value turned out to be 45 min.

For the compound “(d)2,3-dihydroxypropionyl-3PAL-SSChgQSL-acid: blocked oligopeptide with PSA cleavage site, Example 1 ({(d)‑2,3‑dihydroxypropionyl}-[3Pal]SS[Chg]QSL-OH)”, the “Time to 50% Substrate Cleavage by York PSA” value stood at 80 min.

Regarding “(2R,3S) 2,3,4-trihydroxybutanoyl-ShRChgQ-SL-acid: blocked oligopeptide with PSA cleavage site, Example 1 (X5-S[hArg][Chg]QSL-OH)”, the “Time to 50% Substrate Cleavage by York PSA” value stood at 90 min.

Take “(l)2,3-dihydroxypropionyl-SSChgQ-SL-acid: blocked oligopeptide with PSA cleavage site, Example 1 ({Glyceroyl(2S)}-SS[Chg]QSL-OH)”: the “Time to 50% Substrate Cleavage by York PSA” value is 180 min.

Take “2,3-dihydroxypropionyl-ShRChgQ-SL-acid: blocked oligopeptide with PSA cleavage site, Example 1 ({2,3‑dihydroxypropionyl}-S[hArg][Chg]QSL-OH)”: the “Time to 50% Substrate Cleavage by York PSA” value worked out at 75 min.

As to “2,3-dihydroxypropionyl-hRSSChgQ-SL-acid: blocked oligopeptide with PSA cleavage site, Example 1”, the “Time to 50% Substrate Cleavage by York PSA” value was determined as 50 min.

Regarding “(l)2,3-dihydroxypropionyl-SSSChgQ-SL-acid: blocked oligopeptide with PSA cleavage site, Example 1 ({Glyceroyl(2S)}-SSS[Chg]QSL-OH)”, the “Time to 50% Substrate Cleavage by York PSA” value was 80 min and 110 min.

With “PEG(14)ShRYQ-SL-acid: blocked oligopeptide with PSA cleavage site, Example 1 ({PEG(14)}-S[hArg]YQSL-OH)”, the “Time to 50% Substrate Cleavage by York PSA” value came out at 40 min.

With “PEG(17)-ShRYQ-SL-acid: blocked oligopeptide with PSA cleavage site, Example 1 ({PEG(17)}-S[hArg]YQSL-OH)”, the “Time to 50% Substrate Cleavage by York PSA” value was found to be 55 min.

Take “2-hydroxyacetyl-SSChgQ-SL-acid: blocked oligopeptide with PSA cleavage site, Example 1 (Glycolyl-SS[Chg]QSL-OH)”: the “Time to 50% Substrate Cleavage by York PSA” value came out at 180 min.

Regarding “2,3-dihydroxypropionyl-hSSSChgQ-SL-acid: blocked oligopeptide with PSA cleavage site, Example 1 ({2,3‑dihydroxypropionyl}-[hS]SS[Chg]QSL-OH)”, the “Time to 50% Substrate Cleavage by York PSA” value stood at 160 min.

Take “PEG(2)-3PAL-SSChgQ-SL-acid: blocked oligopeptide with PSA cleavage site, Example 1 ({Decanoyl(3,6,9-trioxa)}-[3Pal]SS[Chg]QSL-OH; SMILES COCCOCCOCC(=O)N[C@@H](Cc1cccnc1)C(=O)N[C@@H](CO)C(=O)N[C@@H](CO)C(=O)N[C@H](C(=O)N[C@@H](CCC(N)=O)C(=O)N[C@@H](CO)C(=O)N[C@@H](CC(C)C)C(=O)O)C1CCCCC1)”: the “Time to 50% Substrate Cleavage by York PSA” value is 80 min.

Consider “2,3-dihydroxypropionyl-ShRYQ-SL-acid: blocked oligopeptide with PSA cleavage site, Example 1 ({2,3‑dihydroxypropionyl}-S[hArg]YQSL-OH)”, for which the “Time to 50% Substrate Cleavage by York PSA” value was 35 min and 50 min.

Take “(OH-Ac)SSSChgQ-SL-acid: 2-hydroxyacetyl blocked oligopeptide with PSA cleavage site, Example 1; blocked peptide of Example 3 Step B (Glycolyl-SSS[Chg]QSL-OH)”: the “Time to 50% Substrate Cleavage by York PSA” value was found to be 120 min.

Consider “PEG(18)ShRYQ-SL-acid: blocked oligopeptide with PSA cleavage site, Example 1 ({PEG(18)}-S[hArg]YQSL-OH)”, for which the “Time to 50% Substrate Cleavage by York PSA” value was determined as 40 min.

“PEG(2)SSSChgQ-SL-acid: blocked oligopeptide with PSA cleavage site, Example 1 ({Decanoyl(3,6,9-trioxa)}-SSS[Chg]QSL-OH)”: the “Time to 50% Substrate Cleavage by York PSA” value amounted to 150 min.

Regarding “(l)2,3-dihydroxypropionyl-3PAL-SSChgQ-SL-acid: blocked oligopeptide with PSA cleavage site, Example 1 ({Glyceroyl(2S)}-[3Pal]SS[Chg]QSL-OH; SMILES CC(C)C[C@H](NC(=O)[C@H](CO)NC(=O)[C@H](CCC(N)=O)NC(=O)[C@@H](NC(=O)[C@H](CO)NC(=O)[C@H](CO)NC(=O)[C@H](Cc1cccnc1)NC(=O)[C@@H](O)CO)C1CCCCC1)C(=O)O)”, the “Time to 50% Substrate Cleavage by York PSA” value was 70 min.

As to “PEG(1)-ShRYQ-SL-acid: blocked oligopeptide with PSA cleavage site, Example 1 ({PEG(1)}-S[hArg]YQSL-OH)”, the “Time to 50% Substrate Cleavage by York PSA” value is 90 min.

“PEG(1)-hRSSChgQ-SL-acid: blocked oligopeptide with PSA cleavage site, Example 1 ({PEG(1)}-[hArg]SS[Chg]QSL-OH)”: the “Time to 50% Substrate Cleavage by York PSA” value came out at 30 min.

Take “PEG(16)-ShRYQ-SL-acid: blocked oligopeptide with PSA cleavage site, Example 1 ({PEG(16)}-S[hArg]YQSL-OH)”: the “Time to 50% Substrate Cleavage by York PSA” value is 40 min.

With “2,3-dihydroxypropionyl-SSSChgQ-SL-acid: blocked oligopeptide with PSA cleavage site, Example 1 ({2,3‑dihydroxypropionyl}-SSS[Chg]QSL-OH)”, the “Time to 50% Substrate Cleavage by York PSA” value came to 120 min.

With “AchRSSChgQ-SL-acid: blocked oligopeptide with PSA cleavage site, Example 1 (Ac-[hArg]SS[Chg]QSL-OH)”, the “Time to 50% Substrate Cleavage by York PSA” value was 120 min.

Regarding “2-hydroxyacetyl-ShRChgQ-SL-acid: blocked oligopeptide with PSA cleavage site, Example 1 (Glycolyl-S[hArg][Chg]QSL-OH)”, the “Time to 50% Substrate Cleavage by York PSA” value was 120 min.

Turning to “PEG(19)ShRYQ-SL-acid: blocked oligopeptide with PSA cleavage site, Example 1 ({PEG(19)}-S[hArg]YQSL-OH)”, the “Time to 50% Substrate Cleavage by York PSA” value is 60 min.

Regarding “PEG(15)-ShRYQ-SL-acid: blocked oligopeptide with PSA cleavage site, Example 1 ({PEG(15)}-S[hArg]YQSL-OH)”, the “Time to 50% Substrate Cleavage by York PSA” value stood at 40 min.

Still in this series, the particulars now being: oligopeptide; asterisk not explained in Table 2.
Regarding “PEG(2)-ShRYQ-SL-acid: blocked oligopeptide with PSA cleavage site, Example 1 ({Decanoyl(3,6,9-trioxa)}-S[hArg]YQSL-OH)”, the “Time to 50% Substrate Cleavage by York PSA (Min), values marked *” value is given as 35* Min.

As for “2(S)2,3-dihydroxypropionyl-hRSSChgQ-SL-acid: blocked oligopeptide with PSA cleavage site, Example 1 ({2(S)‑2,3‑dihydroxypropionyl}-[hArg]SS[Chg]QSL-OH)”, the “Time to 50% Substrate Cleavage by York PSA (Min), values marked *” value was 25* Min.

As to “2(S)-2,3-dihydroxy-propionyl ShRChgQSL-acid: blocked oligopeptide with PSA cleavage site, Example 1 ({2(S)‑2,3‑dihydroxypropionyl}-S[hArg][Chg]QSL-OH)”, the “Time to 50% Substrate Cleavage by York PSA (Min), values marked *” value was 35* Min.

Regarding “2-hydroxyacetylhRYQ-SL-acid: blocked oligopeptide with PSA cleavage site, Example 1 (Glycolyl-[hArg]YQSL-OH; SMILES CC(C)C[C@H](NC(=O)[C@H](CO)NC(=O)[C@H](CCC(N)=O)NC(=O)[C@H](Cc1ccc(O)cc1)NC(=O)[C@H](CCCCNC(=N)N)NC(=O)CO)C(=O)O)”, the “Time to 50% Substrate Cleavage by York PSA (Min), values marked *” value is listed as 105* Min.

On to “AchRSSChgQ-SL-acid: blocked oligopeptide with PSA cleavage site, Example 1 (Ac-[hArg]SS[Chg]QSL-OH)”, for which the “Time to 50% Substrate Cleavage by York PSA (Min), values marked *” value came out at 45 min.

Consider “PEG(2)-hRSSChgQ-SL-acid: blocked oligopeptide with PSA cleavage site, Example 1 ({Decanoyl(3,6,9-trioxa)}-[hArg]SS[Chg]QSL-OH)”, for which the “Time to 50% Substrate Cleavage by York PSA (Min), values marked *” value is on record as 40* Min.

For “2-hydroxyacetyl-ShRChgQ-SL-acid: blocked oligopeptide with PSA cleavage site, Example 1 (Glycolyl-S[hArg][Chg]QSL-OH)”, the “Time to 50% Substrate Cleavage by York PSA (Min), values marked *” value was 30 min.

Staying with this series, now noted: psa digestion buffer, pH 8.
As to `CCCC[C@H](NC(=O)[C@H](CO)NC(=O)[C@H](CCC(N)=O)NC(=O)[C@H](Cc1ccc(O)cc1)NC(=O)[C@H](CCCCNC(=N)N)NC(=O)[C@H](CO)NC(C)=O)C(=O)O` [Ac-ShRYQ-SNle-acid] (Ac-S[hArg]YQS[Nle]-OH), the “Time to 50% Substrate Cleavage by York PSA” value was 25 min.

For `CCCC[C@H](NC(=O)[C@H](CO)NC(=O)[C@H](CCC(N)=O)NC(=O)[C@H](CC1CCCCC1)NC(=O)[C@H](CCCCNC(=N)N)NC(C)=O)C(=O)O` [Ac-hR(CHA)Q-SNle-acid] (Ac-[hArg][Cha]QS[Nle]-OH), the “Time to 50% Substrate Cleavage by York PSA” value came to 200 min.

Regarding `CCCC[C@H](NC(=O)[C@H](CO)NC(=O)[C@H](CCC(N)=O)NC(=O)[C@H](Cc1ccc(O)cc1)NC(=O)[C@H](CO)NC(=O)[C@H](CO)NC(=O)[C@H](CCCCNC(=N)N)NC(C)=O)C(=O)O` [Ac-hRSSYQ-SNle-acid] (Ac-[hArg]SSYQS[Nle]-OH), the “Time to 50% Substrate Cleavage by York PSA” value was 25 min.

On to `CC(C)C[C@H](NC(=O)[C@H](CO)NC(=O)[C@H](CCC(N)=O)NC(=O)[C@H](Cc1ccc(O)cc1)NC(=O)[C@H](CO)NC(=O)[C@H](CO)NC(=O)[C@H](CCCCNC(=N)N)NC(=O)CO)C(=O)O` [2-hydroxyacetyl-hRSSYQ-SL-acid] (Glycolyl-[hArg]SSYQSL-OH), for which the “Time to 50% Substrate Cleavage by York PSA” value was 35 min.
